Assay: soluble on expression in E. coli; label from the status in PepcDB or PDB records

Sequence | soluble on expression in E. coli
MAHHHHHHMSTVEELKFIWKFLFSHMNTEKSKEEICDEKKYEENIILLKKLMRTENIKFDQKYNAINILEKLKDIEDIQYEDILNDYAKNFLTFLKGSFEKVAEEIQINDKISFRRNELIKQDLNNKLQNLNHNYNLEYINLNKCLGTEDFESQLNASLKFNSLKDILSKLLKEMKDYEIQYNNLSDTDKFLDMKICELENYLNNTNQNS | not soluble
MGSDKIHHHHHHMNSSVKTRILQPLRIGKHIARHPIIQGAMAVRVSGAKLAGAVANAGGVGVIASLGLGLDSPYFDKRKKRSFFTANRLALIDELAKARSISPDGVIGVNILVATKDYSVLAQTAAAQGADIIITGAGLPLALPEYTAAYPDVALVPSVANLEAAQLICETWQSRYHRLPDALIVENCQQVGGHFTQCEQVNIPGFSLELVIRQLRDYCQNHLGARIPLIVSGGISDRTDIDRMIAIGADGVQIGTRFVTTVECDADQRYKDYHLQAQPEDIVTVPSPVGKPSRALHNLFTEQVMSNSSNLEKRCIANCLETCLCRDHGKTYCLLQALAQAARGDVENGLIFSGANAGYTQDIISVPELMTELTQAHTIEVSSSDKY | not soluble
RLHEILASGVYANHPSPLTIALGKDISGRPVVSDLAKMPHALVAGTTGSGKSVAINAIILSLVYKASPDNVRLILIDPKMLELSVYDGIPHLLTPVVTDMRDAASALNWCVAEMERRYKLMSALGVRNLAGYNQKVREAVKNEEPLTNPLNPVPGSPELLEEMPLIVVVIDELADLMMIVGKKVEKLIARLAQKARAAGIHLLLATQRPSV | not soluble
MMEDGAEGEIGDMLSMCNKHPFFDDDDSERFVILYKICTVFDEPVEGKQPSSAVIVYEELAKSGGYCCRPSKMEESYVKVDQVVQEMAKITSKCAIHLSSHALKNTIQIVRTAFSGEYTQNDKDGNVPEGNEVKFDGDETVMKTTVNCEKLVEDINEFMEEDRQMYGALEIQIMEESERNIDGYAYFSFLKFVPCGNIHLRIPPLEGSCTKEVINEVIETIMRNFWNYCGDS | not soluble
MRLHIGGREKHPDWKIFDALERPEVNFVGNAADLSQFADDSIEAIYASHVLEHFHHSLGNELVSVLLEWRRVLLPNGKLYISVPDLQTLSWLFLSPMAGFQHRLQIMRMMFGGQVDQYDVHKVGFDCEILFTYLQAAKFSDYERVENFELFQDCSNLVFLGYPISLNVVAVKLEHHHHHH | not soluble
MGSDKIHHHHHHMSLPLYQQISDDLKQKIVTKTFKSGDQLPTEKELSETYSVSRITAKRALTELEQLGLVSRTRGKGTFVQELNKNHTKLLKRVLFIIPFEGMSFGDFTQGLVPALKVENTTVFITYESYLKENTADDIKENFDGLIYYPMYTEDYLDILLELSLQNFPVVLLDKQIYDLGFPCVSSDNFNGGEQAAQALLNLGHKRIAFVASNDTHHPQTTRNRYLGYVKVLKEQGIKFHTTLDDSLYTESSVLELIHNEKVTGLICENDLVALQTMKTLQDSHFSVPNDISIIGFDDIQAASLSNPPLTTIAQDFIGMGRIAGELLLDWIKSGQTPKDVKVPINLIKRKTTEELK | not soluble
MGLRFPPKVLEHILSFIDSNEDRNSVSLVCKSWFETERKTRKRVFVGNCYAVSPAAVTRRFPEMRSLTLKGKPHFADYNLVPDGWGGYAWPWIEAMAAKSSSLEEIRMKRMVVTDECLEKIAASFKDFKVLVLTSCEGFSTDGIAAIAATCRNLRVLELRECIVEDLGGDWLSYFPESSTSLVSLDFSCLDSEVKISDLERLVSRSPNLKSLKLNPAVTLDGLVSLLRCAPQLTELGTGSFAAQLKPEAFSKLSEAFSNCKQLQSLSGLWDVLPEYLPALYSVCPGLTSLNLSYATVRMPDLVELLRRCSKLQKLWVMDLIEDKGLEAVASYCKELRELRVFPSEPDLDATNIPLTEQGLVFVSKGCRKLESVLYFCVQFTNAALFTIARKRPNLKCFRLCVIEPFAPDYKTNEPLDKGFKAIAEGCRDLRRLSVSGLLSDKAFKYIGKHAKKVRMLSIAFAGDSDLMLHHLLSGCESLKKLEIRDCPFGDTALLEHAAKLETMRSLWMSSCFVSFGACKLLSQKMPRLNVEVIDEHPPESRPESSPVERIYIYRTVAGPRMDTPEFVWTIHKNPENGVSHLAIK | not soluble
MNTQYLQYVREQLMVATADLSGETKGQLLAWLENAQFDTKNYPRKKQRIWDEETESWITLNNPPIPGKQSLAKGSAIPLVKPVEYSTASWRRAVLSLDEHYKAWLLWNYSENTCWEHQVEITQWGWSAFAAQLDGKKMAGKTQERLRALIWLAAQDVKSELAGREVYQYKELAGLVGVSEKNWSETFTRHWLTMRAIFLRLDQASLLSVSESRSEQVAFNLYALN | not soluble
MEFVPEQHPPITETTTGAASNGCPVVGHMKYPVEGGGNQDWWPNRLNLKVLHQNPAVADPMGAAFDYAAEVATIDVDALTRDIEEVMTTSQPWWPADYGHYGPLFIRMAWHAAGTYRIHDGRGGAGGGMQRFAPLNSWPDNASLDKARRLLWPVKKKYGKKLSWADLIVFAGNCALESMGFKTFGFGFGRVDQWEPDEVYWGKEATWLGDERYSGKRDLENPLAAVQMGLIYVNPEGPNGNPDPMAAAVDIRETFRRMAMNDVETAALIVGGHTFGKTHGAGPADLVGPEPEAAPLEQMGLGWKSSYGTGTGKDAITSGIEVVWTNTPTKWDNSFLEILYGYEWELTKSPAGAWQYTAKDGAGAGTIPDPFGGPGRSPTMLATDLSLRVDPIYERITRRWLEHPEELADEFAKAWYKLIHRDMGPVARYLGPLVPKQTLLWQDPVPAVSHDLVGEAEIASLKSQIRASGLTVSQLVSTAWAAASSFRGSDKRGGANGGRIRLQPQVGWEVNDPDGDLRKVIRTLEEIQESFNSAAPGNIKVSFADLVVLGGCAAIEKAAKAAGHNITVPFTPGRTDASQEQTDVESFAVLEPKADGFRNYLGKGNPLPAEYMLLDKANLLTLSAPEMTVLVGGLRVLGANYKRLPLGVFTEASESLTNDFFVNLLDMGITWEPSPADDGTYQGKDGSGKVKWTGSRVDLVFGSNSELRALVEVYGADDAQPKFVQDFVAAWDKVMNLDRFDVR | soluble
RELLMMTPSKELCQVVGNDVLEIEKVSDHQLKLAGITKVGQELRVNIDLHVDDDMIELDTLEQTRKQLTTRLSKHRFKLQLNLNVANC | not soluble
GPGSMSKQKNVEINYDEVDETTGFKAAEMFVWLKFEESYLQKPEDEREADVDAWADTFCEEMEGEGMNYDRNFVRSVCTLGIYAGLRDEFQQRTGSGKAIYANGDRYDGEFFEGKKHGRGRYIFVSLGKSECDRIVEKELQKLGDVVAGENFVKAVADRYKIGCHIISYIIEYGFHPCYHGDYVRGKRVGRGLMKNKDGTVYKGEFLENKREGRGMFFYLNGDIYSGNWKNGRKHGYGTYHFVGGNEYRGMWNDGVFTHGQWIFPDGVYYEGHFNKKNRPCDEAASMHYPALKMAQTGTFKRGTWAPTSALEVCEETPVDGMTWTD | soluble
MGSDKIHHHHHHVRFCCHHDWLYGVLHLPQQPVTRGVLIVVGGPQYRVGSHRQFVLLARYLAERGIAVMRFDFRGMGDSDGEIRTFEHVGEDLRSAADFFFSECPFLEDIVIWGLCDAASAALFHAHQDSRVSGLVLLNPWVRTEQGIAKAYLKHYYLERLFDPEFWKKLLGGKFNPLASIRSLYEFGRNSLRGGKSPAVSEKSAGSACDLTVPLPERMLDGLKRFQGKILIITSGNDLTAREFLDLVDSSADWQATLRTKQTELCHMESANHTFSTREWRDQVTELTANRVLSW | not soluble
MKVYVVVPTYNESDNIVALMEKILAQRDNIHVLVVDDNSPDGTGEIAARMSSDNPRIHVLRRSGKMGLGSAYCDGFRVALRDGADFIIEMDADFSHDPATIPALLAATDKYDVVVGSRYLNGVSVVNWPIRRLMLSYFASVYTRFVTGLALRDCTSGFKCFRRRVIESVDLDTIRSDGYSFQIEMNYRCVERGFRVGEIPIIFIDRHAGSSKMSKKIVREAVLMVWKLKLGSLVKKLTRRGDRHAALEHHHHHH | soluble
MSLLEYLPPGVDTDRFRPDPAARAELRKRYRLGERPTVVCLSRLVPRKGQDTLVTALPSIRRRVDGAALVIVGGGPYLETLRKLAHDCGVADHVTFTGGVATDELPAHHALADVFAMPCRTRGAGMDVEGLGIVFLEASAAGVPVIAGNSGGAPETVQHNKTGLVVDGRSVDRVADAVAELLIDRDRAVAMGAAGREWVTAQWRWDTLAAKLAEGHHHHHH | not soluble
IKNDGLKLDAYYLPAGKATNKTVIIIHGFRRNKTGMKAYTDMFANLGYNTLTVDNRGHGKSQGHYVGFGWLDKGDVEAWIRYLISKNKNVEIVPFGISMGGATVAMMSGDSLPSNVKALIEDSGYTSVEAEITYEAKAMYNLPQKPFVSTVSLISKLFAGYSYTEASSIKQVEKNTRPMLFMHGGADSYVPTKMVYQLYNADKDPEKQLWIAPNSGHVQGFGDHPSAYTAQIKKFLNLYFK | not soluble
MTENLTVQPERLGVLASHHDNAAVDASSGVEAAAGLGESVAITHGPYCSQFNDTLNVYLTAHNALGSSLHTAGVDLAKSLRIAAKIYSEADEAWRKAIDGLFT | soluble
MGSDKIHHHHHHMWYMRWEGVSDGLKVTAGSVIQRDDLVQYTTTDDATSSGGVLRVPIACSSAGAVGNADDGTALILVTPVNGLPSSGVADTLTGGFDTEELETWRARVIERYYWTPQGGADGDYVVWAKEVPGITRAWTYRHLMGTGTVGVMIASSDLINPIPEESTETAARQHIGPLAPVAGSDLYVFRPVAHTVDFHIRVTPDTPEIRAAITAELRSFLLRDGYPQGELKVSRISEAISGANGEYSHQLLAPVDNISIAKNELAVLGTISWT | not soluble
MGHHHHHHHHHHSSGHIDDDDKHMVGATVAPSSRRDFTFDLYRALASAAPSQNIFFSPVSISMSLAMLSLGAGSSTKMQILEGLGLNLQKSSEKELHRGFQQLLQELNQPRDGFQLSLGNALFTDLVVDLQDTFVSAMKTLYLADTFPTNFRDSAGAMKQINDYVAKQTKGKIVDLLKNLDSNAVVIMVNYIFFKAKWETSFNHKGTQEQDFYVTSETVVRVPMMSREDQYHYLLDRNLSCRVVGVPYQGNATALFILPSEGKMQQVENGLSEKTLRKWLKMFKKRQLELYLPKFSIEGSYQLEKVLPSLGISNVFTSHADLSGISNHSNIQVSEMVHKAVVEVDESGTRAAAATGTIFTFRSARLNSQRLVFNRPFLMFIVDNNILFLGKVNRP | soluble
MGSDKIHHHHHHMKIAVVGLGNIGFNLFSYINKKYPNSVVGVDIDAGRVNDLRSQGYRVTTDYRALTGIDIWLLAPSTGDQGENLFAALGEMIICPGALISIESTLPPGTMELVRKYLEGKGYRCGQDVYLIHVPHRVMFGVDETVCDTPRVMGAFTQACRDKGRQFYEPLVPQLVEVEDVRIAELSKVVENVKRYVDVAFAQELYQYCKDQGMDFAELRKAVNSKSNVELLGTDWGIGGECLPKDMRFLRKVCPSPLLEGAAIADQEYRDRILQQVGTHQNVLIKGLSYKAGVKDLKHSRGVDLVRALEEAGNTVWVVDPLFTPEELEAAGFKTVEKFDEADLQGWIVLEREKALK | not soluble
